B1: Peroxisomal targeting signal receptor (Saccharomyces cerevisiae), P35056 (parent)
chain: MDVGSCSVGNNPLAQLHKHTQQNKSLQFNQKNNGRLNESPLQGTNKPGISEAFISNVNAISQENMANMQRFINGEPLIDDKRRMEIGPSSGRLPPFSNVHSLQTSANPTQIKGVNDISHWSQEFQGSNSIQNRNADTGNSEKAWQRGSTTASSRFQYPNTMMNNYAYASMNSLSGSRLQSPAFMNQQQSGRSKEGVNEQEQQPWTDQFEKLEKEVSENLDINDEIEKEENVSEVEQNKPETVEKEEGVYGDQYQSDFQEVWDSIHKDAEEVLPSELVNDDLNLGEDYLKYLGGRVNGNIEYAFQSNNEYFNNPNAYKIGCLLMENGAKLSEAALAFEAAVKEKPDHVDAWLRLGLVQTQNEKELNGISALEECLKLDPKNLEAMKTLAISYINEGYDMSAFTMLDKWAETKYPEIWSRIKQQDDKFQKEKGFTHIDMNAHITKQFLQLANNLSTIDPEIQLCLGLLFYTKDDFDKTIDCFESALRVNPNDELMWNRLGASLANSNRSEEAIQAYHRALQLKPSFVRARYNLAVSSMNIGCFKEAAGYLLSVLSMHEVNTNNKKGDVGSLLNTYNDTVIETLKRVFIAMNRDDLLQEVKPGMDLKRFKGEFSF
partner: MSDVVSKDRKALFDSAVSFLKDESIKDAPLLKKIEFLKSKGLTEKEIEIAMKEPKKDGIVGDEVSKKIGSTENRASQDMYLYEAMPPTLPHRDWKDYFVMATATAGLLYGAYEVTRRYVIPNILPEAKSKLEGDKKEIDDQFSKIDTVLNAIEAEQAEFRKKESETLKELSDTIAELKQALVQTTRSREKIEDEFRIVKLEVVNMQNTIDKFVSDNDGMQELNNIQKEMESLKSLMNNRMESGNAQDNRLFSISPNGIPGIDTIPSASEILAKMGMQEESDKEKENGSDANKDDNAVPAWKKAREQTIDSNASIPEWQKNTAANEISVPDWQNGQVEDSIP

Variants of: B1
Settings: with pex14_yeast PEX14, P53112

Q: How did the “effect of a mutation on the interaction” value turn out when W120A;W204A was run?
A: disrupting interaction

Variants of: B1
Settings: with pex14_yeast PEX14, P53112
Remark: another data set of the same source

Q: How did the “effect of a mutation on the interaction” value turn out when W204A was run?
A: decreasing interaction

— IntAct's records for PubMed 15949802
